Legend:
Type in all cases: biochemical
Conditions in all cases: glycoproteins at 10 mg/ml
Bovine milk β4Gal-T = target: T1, Bovine milk β4Gal-T (Bos taurus, UniProt P08037); assay: Bovine milk β4Gal-transferase activity assay (control enzyme)
T1 construct: Purified bovine milk enzyme; purchased Sigma; host or cells: bovine milk
T1 sequence (P08037 79-402 limits assumed): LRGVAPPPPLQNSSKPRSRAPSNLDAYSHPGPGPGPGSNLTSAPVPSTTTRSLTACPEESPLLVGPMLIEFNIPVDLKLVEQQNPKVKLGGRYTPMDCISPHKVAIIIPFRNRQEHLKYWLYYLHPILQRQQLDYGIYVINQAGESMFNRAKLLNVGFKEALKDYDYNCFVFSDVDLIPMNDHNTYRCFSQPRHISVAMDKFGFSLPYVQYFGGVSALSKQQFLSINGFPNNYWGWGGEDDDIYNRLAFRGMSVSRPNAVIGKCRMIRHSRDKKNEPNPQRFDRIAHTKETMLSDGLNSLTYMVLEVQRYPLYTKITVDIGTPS
Procedure: (§1) Standard assays were performed in […] total reaction mixtures containing 25 mM Tris (pH 7.5), 10 mM MnCl2, 0.25% Triton X-100, […] UDP-[^14C]-Gal (2,300 cpm/nmol) (Amersham), and varying concentration of acceptor substrates (Sigma) (see Table I for structures). The soluble constructs were assayed with […] of culture supernatant from infected cells, whereas the full length construct was assayed with 1% Triton X-100 homogenates of washed cells. Bovine milk P1,4Gal-transferase (Sigma) was used as control.
(§2) Reaction products were quantified by Dowex-1 chromatography. Assays with hen egg Ovalbumin (Sigma), asialo-fetuin (Sigma), and asialo-agalacto-fetuin (Sigma, treated with bgalactosidase) were performed with the standard reaction mixture modified to contain […] UDP-Gal, 54 mM NaCl, and 0.5 mg Ovalbumin. The transfer of Gal was evaluated after precipitation by filtration through Whatman GF/C glass fiber filters.

β4Gal-T3 = target: T2, β4Gal-T3 (Homo sapiens, UniProt O60512); assay: β4Gal-T3 galactosyltransferase activity assay (soluble enzyme, Sf9 media)
T2 construct: media from Sf9 cells expressing secreted forms of either β4Gal-T2 or -T3 were used as enzyme sources; secretion signal of vector pAcGP67 (gp67 leader; own knowledge of the vector) (N); made in house; host or cells: Sf9 cells, baculovirus; unpurified culture supernatant
T2 sequence (O60512 32-393 limits assumed): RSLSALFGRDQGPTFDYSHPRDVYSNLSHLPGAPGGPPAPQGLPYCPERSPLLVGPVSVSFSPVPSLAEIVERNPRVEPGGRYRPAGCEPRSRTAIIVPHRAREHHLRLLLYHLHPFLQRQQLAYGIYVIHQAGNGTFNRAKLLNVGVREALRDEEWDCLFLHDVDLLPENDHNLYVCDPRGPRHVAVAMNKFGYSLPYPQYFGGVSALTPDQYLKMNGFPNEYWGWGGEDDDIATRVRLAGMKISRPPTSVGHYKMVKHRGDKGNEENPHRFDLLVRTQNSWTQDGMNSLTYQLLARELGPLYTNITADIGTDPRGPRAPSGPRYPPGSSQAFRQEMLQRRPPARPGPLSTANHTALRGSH
Procedure: An expression construct designed to encode amino acid residues 31-372 of β4Gal-T2 was prepared by RT-PCR with mRNA from Colo205 cell line, using the primer pair EBER100FOR (5′-[…]; SEQ ID NO: 9) and EBER114 (5′-[…]; SEQ ID NO: 10) with BamH1 restriction sites (FIG. 2). The PCR product were cloned into the BamHI site of pAcGP67 (Pharmingen), and the construct sequenced to verify correct insertion and sequence. The plasmid pAcGP67-β4Gal-T2-sol was co-transfected with Baculo-Goldä DNA (Pharmingen) as described previously (Bennett et al., 1996). Recombinant Baculo-virus were obtained after two successive amplifications in Sf9 cells grown in serum-containing medium, and titres of virus were estimated by titration in 24-well plates with monitoring of enzyme activities. Controls included pAcGP67-β4Gal-T3-sol (Almeida et al., 1997) and pAcGP67-GalNAc-T3-sol (Bennett et al., 1996).
as §1, §2

β4Gal-T2 = target: T3, β4Gal-T2 (Homo sapiens, UniProt O60909); assay: β4Gal-T2 galactosyltransferase activity assay (soluble enzyme, media of infected Sf9 cells)
T3 construct: An expression construct designed to encode amino acid residues 31-372 of β4Gal-T2 was prepared by RT-PCR; secretion signal of vector pAcGP67 (gp67 leader; own knowledge of the vector) (N); made in house; host or cells: Sf9 (Spodoptera frugiperda) cells, baculovirus; unpurified culture supernatant
T3 sequence (O60909 31-372): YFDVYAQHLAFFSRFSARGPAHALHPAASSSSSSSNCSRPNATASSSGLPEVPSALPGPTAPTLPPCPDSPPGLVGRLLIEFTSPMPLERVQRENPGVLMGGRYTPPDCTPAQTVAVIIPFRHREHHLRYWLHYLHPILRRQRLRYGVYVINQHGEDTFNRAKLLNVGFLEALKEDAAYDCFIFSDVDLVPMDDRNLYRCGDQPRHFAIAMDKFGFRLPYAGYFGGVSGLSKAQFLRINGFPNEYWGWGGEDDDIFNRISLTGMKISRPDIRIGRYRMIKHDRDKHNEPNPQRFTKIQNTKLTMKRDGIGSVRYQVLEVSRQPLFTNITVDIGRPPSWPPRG
Description: The PCR product were cloned into the BamHI site of pAcGP67 (Pharmingen), and the construct sequenced to verify correct insertion and sequence. The plasmid pAcGP67-β4Gal-T2-sol was co-transfected with Baculo-Goldä DNA (Pharmingen) as described previously (Bennett et al., 1996). Recombinant Baculo-virus were obtained after two successive amplifications in Sf9 cells grown in serum-containing medium, and titres of virus were estimated by titration in 24-well plates with monitoring of enzyme activities. Controls included pAcGP67-β4Gal-T3-sol (Almeida et al., 1997) and pAcGP67-GalNAc-T3-sol (Bennett et al., 1996).
as §1
Reaction products were quantified by Dowex-1 chromatography. […] The transfer of Gal was evaluated after precipitation by filtration through Whatman GF/C glass fiber filters.

B1: Hen egg albumin: glycoprotein acceptor, hen egg Ovalbumin (Sigma) (protein, UniProt P01012 2-386, looked up)
Ovalbumin: GSIGAASMEFCFDVFKELKVHHANENIFYCPIAIMSALAMVYLGAKDSTRTQINKVVRFDKLPGFGDSIEAQCGTSVNVHSSLRDILNQITKPNDVYSFSLASRLYAEERYPILPEYLQCVKELYRGGLEPINFQTAADQARELINSWVESQTNGIIRNVLQPSSVDSQTAMVLVNAIVFKGLWEKAFKDEDTQAMPFRVTEQESKPVQMMYQIGLFRVASMASEKMKILELPFASGTMSMLVLLPDEVSGLEQLESIINFEKLTEWTSSNVMEERKIKVYLPRMKMEEKYNLTSVLMAMGITDVFSSSANLSGISSAESLKISQAVHAAHAEINEAGREVVGSAEAGVDAASVSEEFRADHPFLFCIKHIATNAVLFFGRCVSP
Bovine milk β4Gal-T
  Bovine milk β4Gal-T activity with acceptor substrate: 0.7 nmol/min/µg
β4Gal-T3
  β4Gal-T3 activity with acceptor substrate: 1.0 nmol/min/mL
β4Gal-T2
  β4Gal-T2 activity with acceptor substrate: 2.0 nmol/min/mL

Reference: patent publication US7374919B2 (GlycoZym ApS, priority 1998, dated 2008)
